Two substances from patent US20090215686A1 can be followed below.

In this experiment the target is Met on MDCK (Madin-Darby canine kidney) cells (canine) (UniProt Q75ZY9). The experiment in a line: cell-based or functional assay.

Some results are limits rather than exact numbers.

In turn, “NK1 version of the receptor-binding mutant K1M (E195A:R197A:Y198A) (from UniProt P14210 28-209) (ligand)” displayed a concentration at which agonistic activity is seen (MDCK colony scatter) of over 10 nM. In the case of “NK1 version of the receptor-binding mutant K1N (E159A:S161A:E195A:R197A:Y198A) (from UniProt P14210 28-209) (ligand)”, the concentration at which agonistic activity is seen (MDCK colony scatter) worked out at 100 nM.
